Kd data for one substance are collected here from patent US20210371506A1.

pKd: −log10 of the molar value.

One assay concerns the target Aβ1-42 monomer (human). In words: SPR, Biacore T200; IgG captured on Protein A chip, Aβ1-42 monomer flowed over. In general terms: Surface plasmon resonance follows binding to a sensor surface in real time, without labels.
In another assay the target is Aβ1-42 fibrils (human). In words: SPR, Biacore T200; Aβ1-42 fibrils amine-coupled to CM5 chip, antibody flowed over.
Sequence of Aβ1-42 fibrils (human) (peptide, as listed by the source): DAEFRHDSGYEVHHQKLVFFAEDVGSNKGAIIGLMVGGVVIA

Sequence of Aβ1-42 monomer (human) (peptide, as listed by the source): as above

Broadly, the pKd is −log10 of the Kd, conventionally taken in molar units. Aducanumab (antibody): the results for the pKd in the assay with Aβ1-42 monomer (human) and in the assay with Aβ1-42 fibrils (human) were 5.49 and 7.12, respectively.
